Data reported in PMC3792407, “Overexpression of chloroplast NADPH-dependent thioredoxin reductase in Arabidopsis enhances leaf growth and elucidates in vivo function of reductase and thioredoxin domains” (Frontiers in Plant Science, 2013).

Molecular target: the molecule itself
Test: SDS-PAGE of unheated samples with Western blot; soluble leaf proteins extracted in 50 mM HEPES, 5 mM NaCl, 10 mM MgCl2 with or without 2 mM DTT; solubilised in SDS buffer with or without mercaptoethanol and kept on ice (0°C), not heated; 10% acrylamide gel; blot with anti-NTRC or anti-NTRB antibody

Protein	stoichiometry N
NADPH-dependent thioredoxin reductase C (NTRC), endogenous in wild-type Arabidopsis leaves (enzyme, UniProt O22229 68-529, looked up, NTRC of Arabidopsis thaliana (At2g41680), mature chloroplast protein without the putative transit peptide of 67 amino acids (ChloroP); calculated mass of mature NTRC 50890 Da, band of about 50 kDa; printed residue numbers count on the precursor with the transit peptide; The cleavage site of the transit peptide is only a ChloroP prediction (67 amino acids); also called plastid-localized …) ATANSPSSSSSGGEIIENVVIIGSGPAGYTAAIYAARANLKPVVFEGYQMGGVPGGQLMTTTEVENFPGFPDGITGPDLMEKMRKQAERWGAELYPEDVESLSVTTAPFTVQTSERKVKCHSIIYATGATARRLRLPREEEFWSRGISACAICDGASPLFKGQVLAVVGGGDTATEEALYLTKYARHVHLLVRRDQLRASKAMQDRVINNPNITVHYNTETVDVLSNTKGQMSGILLRRLDTGEETELEAKGLFYGIGHSPNSQLLEGQVELDSSGYVLVREGTSNTSVEGVFAAGDVQDHEWRQAVTAAGSGCIAALSAERYLTSNNLLVEFHQPQTEEAKKEFTQRDVQEKFDITLTKHKGQYALRKLYHESPRVILVLYTSPTCGPCRTLKPILNKVVDEYNHDVHFVEIDIEEDQEIAEAAGIMGTPCVQFFKNKEMLRTISGVKMKKEYREFIEANK	2
full-length NTRC with C454S/C457S in the TRXd active site (OE-SGPS) (enzyme, Arabidopsis thaliana, UniProt O22229 68-529, looked up, signal peptide in the construct (chloroplast transit peptide, putative 67 amino acids, ChloroP); full-length NTRC of Arabidopsis thaliana (At2g41680) with both redox cysteines of the TRXd motif CGPC changed to serine; in the leaf extract it runs as the mature protein of about 50 kDa; also called NTRC-SGPS; source: transgenic Arabidopsis (ntrc knockout background, CaMV 35S promoter, pGWR8), …) ATANSPSSSSSGGEIIENVVIIGSGPAGYTAAIYAARANLKPVVFEGYQMGGVPGGQLMTTTEVENFPGFPDGITGPDLMEKMRKQAERWGAELYPEDVESLSVTTAPFTVQTSERKVKCHSIIYATGATARRLRLPREEEFWSRGISACAICDGASPLFKGQVLAVVGGGDTATEEALYLTKYARHVHLLVRRDQLRASKAMQDRVINNPNITVHYNTETVDVLSNTKGQMSGILLRRLDTGEETELEAKGLFYGIGHSPNSQLLEGQVELDSSGYVLVREGTSNTSVEGVFAAGDVQDHEWRQAVTAAGSGCIAALSAERYLTSNNLLVEFHQPQTEEAKKEFTQRDVQEKFDITLTKHKGQYALRKLYHESPRVILVLYTSPTSGPSRTLKPILNKVVDEYNHDVHFVEIDIEEDQEIAEAAGIMGTPCVQFFKNKEMLRTISGVKMKKEYREFIEANK	2
full-length NTRC with C217S/C220S in the NTRd active site (OE-SAIS) (enzyme, Arabidopsis thaliana, UniProt O22229 68-529, looked up, signal peptide in the construct (chloroplast transit peptide, putative 67 amino acids, ChloroP); full-length NTRC of Arabidopsis thaliana (At2g41680) with both redox cysteines of the NTRd motif CAIC changed to serine; in the leaf extract it runs as the mature protein of about 50 kDa; source: transgenic Arabidopsis (ntrc knockout background, CaMV 35S promoter, pGWR8), soluble leaf extract) ATANSPSSSSSGGEIIENVVIIGSGPAGYTAAIYAARANLKPVVFEGYQMGGVPGGQLMTTTEVENFPGFPDGITGPDLMEKMRKQAERWGAELYPEDVESLSVTTAPFTVQTSERKVKCHSIIYATGATARRLRLPREEEFWSRGISASAISDGASPLFKGQVLAVVGGGDTATEEALYLTKYARHVHLLVRRDQLRASKAMQDRVINNPNITVHYNTETVDVLSNTKGQMSGILLRRLDTGEETELEAKGLFYGIGHSPNSQLLEGQVELDSSGYVLVREGTSNTSVEGVFAAGDVQDHEWRQAVTAAGSGCIAALSAERYLTSNNLLVEFHQPQTEEAKKEFTQRDVQEKFDITLTKHKGQYALRKLYHESPRVILVLYTSPTCGPCRTLKPILNKVVDEYNHDVHFVEIDIEEDQEIAEAAGIMGTPCVQFFKNKEMLRTISGVKMKKEYREFIEANK	2
